target: acetylcholine receptor (Homo sapiens, UniProt P02708); test: SPR binding affinity (RU) of optimized 5mer/6mer/7mer peptides, Examples 6-7; details: 6mer-1 Top sequence; SPR; peptides tested at 10 μM
Experimental: Based on the frequencies of occurrence of the top 7 amino acids from Table 7 in Example 5, 600 peptides comprising these amino acids (top combinations) and those comprising the 13 less frequently occurring amino acids (bottom combinations) were synthesized for each series of 5mer, 6mer-1, and 6mer-2. The binding affinity of each sequence for the acetylcholine receptor was measured using Surface Plasmon Resonance (SPR) analysis method. The peptides were tested at a concentration of 10 μM. Additionally, the average binding affinities of the top and bottom combinations in each series are depicted in FIGS. 5-7.
Representative peptides identified in Example 6, two in each library, including 5mers (73, 311) and 6mers-1 (43, 210) and 6mers-2 (136, 233), were compared with the pre-optimized 6mer, 5mer-ND, and Synake.

Chain of acetylcholine receptor (P02708 21-457): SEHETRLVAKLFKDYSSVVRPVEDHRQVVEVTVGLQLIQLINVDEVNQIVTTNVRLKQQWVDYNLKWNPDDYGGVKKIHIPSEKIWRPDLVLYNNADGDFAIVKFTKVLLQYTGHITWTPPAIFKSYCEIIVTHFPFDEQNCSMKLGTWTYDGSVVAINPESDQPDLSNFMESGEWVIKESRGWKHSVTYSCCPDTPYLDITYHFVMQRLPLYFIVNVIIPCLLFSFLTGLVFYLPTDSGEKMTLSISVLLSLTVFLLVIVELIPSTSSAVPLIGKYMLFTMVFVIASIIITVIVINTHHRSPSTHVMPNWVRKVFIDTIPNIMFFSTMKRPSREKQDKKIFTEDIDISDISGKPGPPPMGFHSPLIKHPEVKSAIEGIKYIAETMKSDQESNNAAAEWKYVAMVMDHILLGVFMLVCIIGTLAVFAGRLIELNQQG

Row | Substance | Binding affinity
1 | 6mer-1-392 (RRVQTR) | 135 Ru
2 | 6mer-1-371 (KRSLTR) | 153 Ru
3 | 6mer-1-308 (KRRITR) | 135 Ru
4 | 6mer-1-252 (RRWIRR) | 131 Ru

same assay, conditions: 6mer-2 Top sequence; SPR; peptides tested at 10 μM

Row | Substance | Binding affinity
5 | 6mer-2-79 (RQLSKR) | 135 Ru
6 | 6mer-2-198 (KWYYRK) | 139 Ru
7 | 6mer-2-139 (KLFRKK) | 149 Ru
8 | 6mer-2-125 (KVQLRR) | 142 Ru
9 | 6mer-2-16 (KGVCRR) | 121 Ru
10 | 6mer-2-64 (KSVSKK) | 136 Ru
11 | 6mer-2-13 (RQYTRK) | 123 Ru
12 | 6mer-2-190 (KVYLKR) | 148 Ru

same assay, conditions: SPR, Resonance Units; 5mer Bottom sequence (bottom combinations); peptides tested at 10 μM

Row | Substance | Binding affinity
13 | 5mer-1073 (RDEAK) | 29 Ru
14 | 5mer-625 (KMCDR) | 33 Ru
15 | 5mer-794 (KEAPK) | 20 Ru
16 | 5mer-1077 (KADMK) | 12 Ru
17 | 5mer-995 (KFTDK) | 18 Ru
18 | 5mer-1111 (KAEHK) | 12 Ru
19 | 5mer-677 (RCEMR) | 15 Ru
20 | 5mer-780 (RDSHK) | 27 Ru
21 | 5mer-942 (RPSDR) | 11 Ru
22 | 5mer-741 (KPTPR) | 14 Ru
23 | 5mer-968 (RIPHR) | 11 Ru
24 | 5mer-1087 (KKKKR) | 11 Ru
25 | 5mer-972 (KYAKR) | 14 Ru
26 | 5mer-1091 (KTEHR) | 29 Ru
27 | 5mer-920 (KPKIK) | 15 Ru

same assay, conditions: SPR, Resonance Units; peptides tested at 10 μM; 6mer-1 Bottom sequence

Row | Substance | Binding affinity
28 | 6mer-1-1136 (KKIEIK) | 34 Ru
29 | 6mer-1-1108 (RRAHNK) | 43 Ru
30 | 6mer-1-1194 (KKTHAK) | 22 Ru
31 | 6mer-1-1179 (KRMTPR) | 40 Ru
32 | 6mer-1-1118 (KKDTIK) | 33 Ru
33 | 6mer-1-1101 (RRECDK) | 37 Ru
34 | 6mer-1-1166 (KKEEKR) | 22 Ru

same assay, conditions: SPR, Resonance Units; peptides tested at 10 μM; 6mer-1 Bottom sequence (Table 11)

Row | Substance | Binding affinity
35 | 6mer-1-785 (KKTCER) | 19 Ru
36 | 6mer-1-713 (KKATNK) | 20 Ru
37 | 6mer-1-669 (KRNMAK) | 23 Ru
38 | 6mer-1-614 (KKEEER) | 12 Ru
39 | 6mer-1-703 (KKFHPR) | 18 Ru

same assay, conditions: SPR, Resonance Units; peptides tested at 10 μM; 6mer-2 Bottom sequence

Row | Substance | Binding affinity
40 | 6mer-2-685 (KFHNRK) | 15 Ru
41 | 6mer-2-959 (RTNARK) | 35 Ru
42 | 6mer-2-956 (KFCWRR) | 28 Ru
43 | 6mer-2-872 (KTHFRK) | 28 Ru
44 | 6mer-2-850 (KTSMKR) | 16 Ru
45 | 6mer-2-830 (RMKFKR) | 21 Ru
46 | 6mer-2-946 (KPCEKK) | 21 Ru
47 | 6mer-2-640 (KFKKKR) | 21 Ru
48 | 6mer-2-890 (RDNPKR) | 30 Ru
49 | 6mer-2-783 (RDMVRK) | 32 Ru
50 | 6mer-2-879 (RTMDRR) | 19 Ru
51 | 6mer-2-947 (KTNWRK) | 41 Ru
52 | 6mer-2-886 (KTWVRR) | 13 Ru
53 | 6mer-2-962 (KKSNRK) | 30 Ru
54 | 6mer-2-664 (KCCWKK) | 11 Ru
55 | 6mer-2-720 (RATNRK) | 29 Ru
56 | 6mer-2-948 (RPPFRR) | 28 Ru
57 | 6mer-2-792 (RAEDKR) | 13 Ru
58 | 6mer-2-875 (RIDHRK) | 13 Ru

same assay, conditions: SPR, Resonance Units; peptides tested at 10 μM; 6mer-2 Top sequence

Row | Substance | Binding affinity
59 | 6mer-2-458 (RRFQRR) | 122 Ru
60 | 6mer-2-594 (RWYRRR) | 139 Ru
61 | 6mer-2-520 (KSYCKR) | 144 Ru
62 | 6mer-2-415 (KGRCKK) | 149 Ru
63 | 6mer-2-579 (RWQYRK) | 135 Ru
64 | 6mer-2-564 (KQVYRK) | 148 Ru
65 | 6mer-2-524 (RGIQKR) | 128 Ru
66 | 6mer-2-511 (RVFCRR) | 126 Ru
67 | 6mer-2-480 (RRFTKK) | 147 Ru
68 | 6mer-2-477 (RSRTRR) | 135 Ru
69 | 6mer-2-452 (KGLYKR) | 146 Ru
70 | 6mer-2-403 (KGVLRK) | 123 Ru
71 | 6mer-2-438 (RLLCRK) | 131 Ru

same assay, conditions: SPR, Resonance Units; peptides tested at 10 μM; 6mer-2 Top sequence (Table 12)

Row | Substance | Binding affinity
72 | 6mer-2-228 (KGQCKK) | 141 Ru
73 | 6mer-2-286 (KRRYKK) | 139 Ru
74 | 6mer-2-244 (RRFSKR) | 139 Ru
75 | 6mer-2-344 (KGIRRK) | 148 Ru
76 | 6mer-2-261 (RWYTKK) | 121 Ru
77 | 6mer-2-224 (RLFLKR) | 148 Ru
78 | 6mer-2-295 (KVRYKK) | 145 Ru
79 | 6mer-2-267 (KLYSRR) | 141 Ru
80 | 6mer-2-360 (KGVRRR) | 141 Ru
81 | 6mer-2-388 (KRFQKK) | 139 Ru

same assay, conditions: SPR, peptides at 10 μM; 6mer-2 Bottom sequence

Row | Substance | Binding affinity
82 | 6mer-2-1179 (KACVKK) | 34 Ru
83 | 6mer-2-999 (RATIKR) | 31 Ru
84 | 6mer-2-1182 (RHNDKR) | 30 Ru
85 | 6mer-2-1126 (RHEVRR) | 23 Ru
86 | 6mer-2-1072 (KPHWKR) | 29 Ru
87 | 6mer-2-1038 (KHWERK) | 33 Ru
88 | 6mer-2-1045 (RHAHRR) | 41 Ru
89 | 6mer-2-1037 (KIHWKK) | 26 Ru
90 | 6mer-2-1125 (RDAFKK) | 30 Ru

same assay, conditions: SPR, peptides tested at 10 μM; 5mer Top sequence

Row | Substance | Binding affinity
91 | 5mer-509 (RVQRK) | 61 Ru
92 | 5mer-445 (RLFTR) | 77 Ru
93 | 5mer-168 (KLFSK) | 84 Ru
94 | 5mer-481 (KSYCK) | 78 Ru
95 | 5mer-206 (KLQLR) | 57 Ru
96 | 5mer-102 (RGFSK) | 82 Ru
97 | 5mer-14 (RWLCK) | 63 Ru
98 | 5mer-429 (KSQYK) | 63 Ru
99 | 5mer-89 (KRITK) | 77 Ru
100 | 5mer-340 (KGYRR) | 51 Ru
101 | 5mer-416 (KLYLR) | 67 Ru
102 | 5mer-316 (KQYLR) | 73 Ru
103 | 5mer-9 (RGVQR) | 77 Ru
104 | 5mer-117 (RSVYK) | 69 Ru
105 | 5mer-99 (RWICK) | 58 Ru
106 | 5mer-397 (RRITK) | 52 Ru
107 | 5mer-378 (RRLSK) | 65 Ru
108 | 5mer-143 (KGQQR) | 64 Ru
109 | 5mer-2 (KRISR) | 80 Ru
110 | 5mer-209 (RGVRR) | 78 Ru
111 | 5mer-197 (RSRQK) | 68 Ru

same assay, conditions: SPR, peptides tested at 10 μM; 5mer Top sequence (top combinations)

Row | Substance | Binding affinity
112 | 5mer-582 (RGICK) | 82 Ru
113 | 5mer-224 (RLQRR) | 67 Ru
114 | 5mer-540 (RQFYR) | 74 Ru
115 | 5mer-288 (KLILK) | 73 Ru
116 | 5mer-299 (KGRRK) | 62 Ru
117 | 5mer-544 (RLQLR) | 63 Ru
118 | 5mer-586 (KGRRR) | 78 Ru
119 | 5mer-228 (KRFLK) | 53 Ru
120 | 5mer-298 (KSIYR) | 75 Ru
121 | 5mer-531 (KRQSR) | 65 Ru

same assay, conditions: SPR, peptides tested at 10 μM; 6mer-1 Bottom sequence (Table 11)

Row | Substance | Binding affinity
122 | 6mer-1-927 (KRESHR) | 37 Ru
123 | 6mer-1-881 (KKHMER) | 20 Ru
124 | 6mer-1-995 (KRCHHR) | 33 Ru
125 | 6mer-1-827 (RKKKFR) | 30 Ru

same assay, conditions: SPR, peptides tested at 10 μM; 6mer-1 Top sequence

Row | Substance | Binding affinity
126 | 6mer-1-506 (RRRLSK) | 151 Ru
127 | 6mer-1-540 (KRVQTR) | 128 Ru
128 | 6mer-1-516 (KKRFSR) | 139 Ru
129 | 6mer-1-1458 (RKGQLK) | 139 Ru
130 | 6mer-1-525 (RRQLRR) | 139 Ru
131 | 6mer-1-527 (KKGIYR) | 142 Ru
132 | 6mer-1-529 (RRSLCK) | 139 Ru

same assay, conditions: SPR, peptides tested at 10 μM; 6mer-1 Top sequence (top combinations)

Row | Substance | Binding affinity
133 | 6mer-1-97 (KKVYLR) | 139 Ru
134 | 6mer-1-104 (KRGFSK) | 121 Ru
135 | 6mer-1-15 (KRQICK) | 123 Ru
136 | 6mer-1-4 (RKSFYK) | 139 Ru
137 | 6mer-1-196 (RKWRRK) | 142 Ru
138 | 6mer-1-167 (RRRYQR) | 122 Ru
139 | 6mer-1-39 (RKVYQK) | 139 Ru
140 | 6mer-1-31 (KRLYCR) | 121 Ru

same assay, conditions: SPR; XRRGVRR-7mer and RRGVRRX-7mer

Row | Substance | Binding affinity, values relative to the RRGVRR sequence
141 | 3677 (RRGVRRR) [compound 3677] | 188

same assay, conditions: SPR; XRRQRR-6mer and RRQRRX-6mer

Row | Substance | Binding affinity, relative value to the RRQRR sequence
142 | 3627 (RRQRRI) [compound 3627] | 133

same assay, conditions: SPR; peptides tested at 10 μM; 5mer Bottom sequence

Row | Substance | Binding affinity
143 | 5mer-1145 (RMPAK) | 25 Ru
144 | 5mer-847 (KAPEK) | 28 Ru
145 | 5mer-1133 (KCSMK) | 23 Ru
146 | 5mer-1148 (RDWFR) | 24 Ru
